Molecular target: T1, PR (Homo sapiens, UniProt P06401)
T1 construct: expressed in transfected cells; host or cells: DU145, PC-3
T1 sequence (P06401 1-933): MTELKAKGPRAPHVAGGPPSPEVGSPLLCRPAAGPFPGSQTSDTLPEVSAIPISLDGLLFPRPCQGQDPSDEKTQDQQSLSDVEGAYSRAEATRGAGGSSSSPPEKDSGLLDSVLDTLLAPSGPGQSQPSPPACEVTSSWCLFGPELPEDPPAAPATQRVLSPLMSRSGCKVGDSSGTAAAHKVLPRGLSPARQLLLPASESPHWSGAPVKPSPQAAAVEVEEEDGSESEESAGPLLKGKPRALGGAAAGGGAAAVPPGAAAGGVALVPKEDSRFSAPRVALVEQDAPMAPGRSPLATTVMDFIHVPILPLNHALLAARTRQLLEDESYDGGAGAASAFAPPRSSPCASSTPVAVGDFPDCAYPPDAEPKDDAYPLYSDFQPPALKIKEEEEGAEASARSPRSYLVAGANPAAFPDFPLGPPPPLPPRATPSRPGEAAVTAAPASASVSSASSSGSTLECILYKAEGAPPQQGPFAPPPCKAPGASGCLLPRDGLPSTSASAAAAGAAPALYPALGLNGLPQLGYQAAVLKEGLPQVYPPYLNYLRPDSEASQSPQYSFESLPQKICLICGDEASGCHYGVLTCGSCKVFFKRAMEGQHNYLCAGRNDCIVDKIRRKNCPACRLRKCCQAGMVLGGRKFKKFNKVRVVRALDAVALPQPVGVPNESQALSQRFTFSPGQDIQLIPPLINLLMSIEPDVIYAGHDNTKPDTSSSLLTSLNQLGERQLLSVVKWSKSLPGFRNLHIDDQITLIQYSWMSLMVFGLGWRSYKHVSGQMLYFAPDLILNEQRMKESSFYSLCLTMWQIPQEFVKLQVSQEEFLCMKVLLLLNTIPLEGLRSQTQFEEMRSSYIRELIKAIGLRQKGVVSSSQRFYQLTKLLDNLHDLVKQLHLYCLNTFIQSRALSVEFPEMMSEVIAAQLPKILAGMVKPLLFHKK
Assay: PR transcription activity, MMTV-CAT reporter (Example 1)
Format: cell-based
Conditions: DU145 cells
Protocol: 366. Human prostate cancer DU145 or PC3 cells, or human lung carcinoma cells NCI H1299 were grown in Dulbecco's minimal essential medium (DMEM) containing penicillin (25 U/ml), streptomycin (25˜g/ml), and 5% fetal calf serum (FCS). One hour before transfection, the medium was changed to DMEM with 5% charcoal-stripped FCS. Phenol red-free and serum-free media were used on the experiments employing E2 or TGF-β, respectively. A β-galactosidase expression plasmid, pCMV-β-gal, was used as an internal control for transfection efficiency.
367. Cells were transfected using the calcium phosphate technique (Yeh, et al. Molec. Endocrinol. 8:77-88, 1994). The medium was changed 24 hr posttransfection and the cells treated with either steroid hormones or hydroxyflutamide, and cultured for an additional 24 hr. Cells were harvested and assayed for CAT activity after the cell lysates were normalized by using β-galactosidaseas an internal control. Chloramphenicol acetyltransferase (CA) activity was visualized by PhosphorImager (Molecular Dynamics) and quantitated by ImageQuant software (Molecular Dynamics).

- enhancement of the transcription activity of PR: 3-5 fold
B1: ARA54: 54 kDa protein that interacts with AR in an androgen-dependent manner; AR coactivator (protein)
chain: MSSEDREAQEDELLALASIYDGDEFRKAESVQGGETRIYLDLPQNFKIFVSGNSNECLQNSGFEYTICFLPPLVLNFELPPDYPSSSPPSFTLSGKWLSPTQLSALCKHLDNLWEEHRGSVVLFAWMQFLKEETLAYLNIVSPFELKIGSQKKVQRRTAQASPNTELDFGGAAGSDVDQEEIVDERAVQDVESLSNLIQEILDFDQAQQIKCFNSKLFLCSICFCEKLGSECMYFLECRHVYCKACLKDYFEIQIRDGQVQCLNCPEPKCPSVATPGQVKELVEAELFARYDRLLLQSSLDLMADVVYCPRPCCQLPVMQEPGCTMGICSSCNFAFCTLCRLTYHGVSPCKVTAEKLMDLRNEYLQADEANKRLLDQRYGKRVIQKALEEMESKEWLEKNSKSCPCCGTPIEKLDGCNKMTCTGCMQYFCWICMGSLSRANPYKHFNDPGSPCFNRLFYAVDVDDDIWEDEVED

— patent US20060270591A1, “Androgen receptor coregulators” (priority 2002, published 2006)
